The numbers were not newly measured in PMC4072998, which cites them from elsewhere.

What is called pKa is the pH at which an ionisable group is half protonated.

Data set [1] addresses T1, Glu14 (UniProt position 14, GAILAEVIGTT). Briefly: other.
Data set [2] deals with T1, Glu14. Kind of data set: kinetics. The settings on record: pre-equilibrium; free protein binding substrate.
The next data set deals with Asp14 (UniProt position 14, GAILADVIGTT). Briefly: kinetics. Particulars: pre-equilibrium; free protein binding substrate.

As for “EmrE (small multidrug resistance transporter) (Escherichia coli)”, the pKa with Glu14 [1] (equilibrium, substrate-induced deprotonation) was 8.3-8.5; in the data set with Glu14 [1] (substrate-free protein competing for H+ versus TPP+), 7-8; in the data set with Glu14 [2], roughly 7.3.
“EmrE E14D mutant (Escherichia coli; E14D)”: in the data set with Asp14, the pKa is reported as 5.8.
